Laboratory results: US20100092460A1 (Ablynx, published 2010)
Changes are numbered by the printed parent chain.

B1: Nanobody 11G8 (VHH)
VHH: EVQLVESGGGLVQAGGSLRLSCAASGRTFSSYAMGWFRQAPGKEQEFVAAISWSGGSTYYADSVKGRFTISRDNAKNTVYLQMNSLKPEDTAVYYCAAHDVDDDESPYYSGGYYRALYDYWGQGTQVTVSS
notes: llama VHH against CXCL11; not shown: C-terminal c-myc tag and (His)6 tag coded by the vector
B2: Nanobody 11C7 (VHH)
VHH: EVQLVESGGGLVQAGGSLRLSCAAASGGTFTKQTISWFRQAPGKDREFVAAQWWSGLSTYFAEYADSVKGRFTISRDNAKNTAYLEMNSLKFEDTAVYYCAAGLGVVRTLIRRASSYDYWGQGTQVTVSS
notes: as for B1
B3: Nanobody 11E5 (VHH)
VHH: EVQLVESGGGLVQAGGSLRLSCAASGFTFDDYAIGWFRQAPGKEREGVSWISSSDKDTYYADSVKGRFTISSDNAKNTVYLQMNSLKPEDTAVYYCAAGAGLLIATIWTTQMYDYWGQGTQVTVSS
notes: as for B1
B4: Nanobody 11D1 (VHH)
VHH: EVQLVESGGGLVQAGGSLRLSCAASGFTLNDYAIGWFRQAPGKEREGVSLISSDDGSTYYADSVKGRFTISSDNAKNTVYLQMNSLKPEDTAVYYCAAAQGLLLLSLWVPTQYDYWGQGTQVTVSS
notes: as for B1
B5: Nanobody 11D5 (VHH)
VHH: EVQLVESGGGLVQPGGSLRLSCAASRSGLSINAMGWFRQAPGKQRELVASITRGGPTIYADSVKGRFTISGDNAKNTVYLQMNSLKPEDTAVYYCNALIDYGLGFPIEYWGQGTQVTVSS
notes: as for B1
B6: Nanobody 11F7 (VHH)
VHH: EVQLVESGGGLVQAGGSLRLSCAASGGTFTKQTMGWFRQTPGKDREFVAVQWWTGLSTYSAEYADSVKGRFTISRDNAKNTAYLQMNSLKFEDTAVYYCAAGLGVVRTFIRRASSYDDWGQGTQVTVSS
notes: as for B1
B7: Nanobody 11A1 (VHH)
VHH: EVQLVESGGGLVQAGGSLRLSCAASGFTLDDYAIGWFRQAPGKEREGVSCISSIDGDTVYADSVKGRFTASSDNAKNTAYLQMNSLKPEDTAVYYCAAGQGLLTAQALRWESYDYWGQGTQVTVSS
notes: as for B1
B8: Nanobody 11D10 (VHH)
VHH: EVQLVESGGGLVQAGGSLRLSCAASGFTIDDYAIGWFRQAPGKEREGVSCISSSDGSTYYADSVKGRFTISSDNAKNTVYLQMNSLKPEDTAVYYCAAAQGLVVTEMFVGRSYDYWGQGTQVTVSS
notes: as for B1
B9: Nanobody 11B8 (VHH)
VHH: EVQLVESGGGLVQPGGSLRLSCAASGFTLDDYVIGWFRQAPGKEREGVSGISSSDGSTYYADSVKGRFTISRDNAKNTVYLQMNSLKPEDTAVYYCAAGMGVLRLWVLSKLSYDYWGQGTQVTVSS
notes: as for B1
B10: Nanobody 8A5 (VHH)
VHH: QVQLVESGGGLVQAGGSLALSCAASGIAFSIFDMAWFRQTPGKEREAVARISHGGGKDYLDSVKGRFTISRDNAKNTVTLQMTSLKPEDTAVYYCNAKNSFRNLWGQGTQVTVSS
notes: llama VHH against CCL2; not shown: C-terminal c-myc tag and (His)6 tag coded by the vector
B11: Nanobody 8B2 (VHH)
VHH: EVQLVESGGGLVQAGGSLRLSCAASGGTFASYGMGWFRQYPGKEREFVAAISRSGDSTYYADSVKGRFTISRDNAKNTVYLQMNSLKPEDTAVYYCAAGRFIPQLSAYDYWGQGTQVTVSS
notes: as for B10
B12: Nanobody 8A7 (VHH)
VHH: EVQLVESGGGLVQAGGSLRLSCAASGRTFSSYRMGWFRQAPEKEREFVAVISRSGGSTFYSNSVKGRFTISRDNAKNTVYLQMNSLKPEDTAVYYCAAGAQMGWAEASTYDYWGQGTQVTVSS
notes: as for B10
B13: Nanobody 15H7 (VHH)
VHH: B12 VHH with E6K, V50L, S57T, K87E
notes: as for B10
B14: Nanobody 8E7 (VHH)
VHH: B12 VHH with R27G, S52T, T58H, F59S
notes: as for B10
B15: Nanobody 15F7 (VHH)
VHH: B12 VHH with S21P, S57D, N62S
notes: as for B10
B16: Nanobody 8D7 (VHH)
VHH: B12 VHH with V50L, S52T, S57T, K87E
notes: as for B10
B17: Nanobody 15H4 (VHH)
VHH: EVQLVESGGGLVQAGGSLRLSCAASGLTFSTYPMGWFRQAPGKEREFVAAINSGGSSTYYADSVKGRFTISRDNAKNTVYLQMNSLKPEDTAVYSCAVKIYSGSYSSPPGYNYWGQGTQVTVSS
notes: as for B10
B18: Nanobody 8E1 (VHH)
VHH: B17 VHH with S57Y, K76V, V79I, Y113H
notes: as for B10
B19: Nanobody 8D1 (VHH)
VHH: EVQLVESGGGLVQPGGSLRLSCAASGFNLDDYAIGWFRQAPGKEREGVACASSTDGSTAYADSVKGRFTVSRDNAKNTVYLQMNSLKPEDTAVYYCAADPSDPFCPGLYYGMDYWGKGTLVTVSS
notes: as for B10
B20: Nanobody 15H3 (VHH)
VHH: EVQLVESGGGLVQAGGSLRLSCAASGGTFSNYAMGWFRQAPEKEREFVAAVIWRGGSTYYADSVKGRFTISRDNARNTVYLQMNSLKPEDTAVYYCAADLLGNSDYEPSSGFGSWGQGTQVTVSS
notes: as for B10
B21: Nanobody 8E5 (VHH)
VHH: EVQLVESGGGLVQAGGSLRLSCAASGGTFSSYRMAWFRQTPGKEREFVTLISRSGGTTDYTDSVKGRFTISRDNAKNTVYLQMNSLKPEDTAVYYCAAAGSMGWNHFREYDYWGQGTQVTVSS
notes: as for B10
B22: Nanobody 8D5 (VHH)
VHH: EVQLVESGGGLVQAGGSLRLSCAASGRTFSNYAMDWFRQAPGKEREFVAAISKSDGSTYYADSVKGRFTISRDNAKNTVYLQMNSLKPEDTAVYYCAAEGDSSPMGGVTYDYWGQGTQVTVSS
notes: as for B10
B23: Nanobody 11D2 (VHH)
VHH: B7 VHH with T28S, L29F, C50L, I54S, D57S, V59Y, A70I, A79V, T104R
notes: llama VHH against CXCL11; also called 11G1; 11H1; not shown: C-terminal c-myc tag and (His)6 tag coded by the vector
B24: Nanobody 11H2 (VHH)
VHH: B7 VHH with L29F, I54S, V59Y, A79V, M83I, T104I
notes: llama VHH against CXCL11; purified; not shown: C-terminal c-myc tag and (His)6 tag coded by the vector
B25: Nanobody 11A3 (VHH)
VHH: EVQLVESGGGLVQAGGSLRLSCAASGFSFDDYVIGWFRQAPGKEREGVSLISSSDGSTYYADSVKGRFTISSDNAKNTVYLQMNSLKPEDTAVYYCAAGNGLLRLWMFHVSAYDYWGQGTQVTVSS
notes: as for B1
B26: Nanobody 11C2 (VHH)
VHH: EVQLVESGGGLVQAGGSLRLPCAASGFTFDDYVIGWFRQAPGKEREGVSLISSSDGSTYYADSVKGRFTISSDNAKNTVYLQMNGLKPEDTAVYYCAATSSIPYYSGSYYPNPFEYDYWGQGTQVTVSS
notes: as for B1

molecular target: T1, recombinant human CXCL11/I-TAC (human, UniProt O14625 22-94, biotinylated in the ELISA; 125I label in the radioligand assays); assay: inhibition of 125I-CXCL11 binding to hCXCR3 (HEK293T cells), 10x diluted periplasm
T1 sequence (looked up): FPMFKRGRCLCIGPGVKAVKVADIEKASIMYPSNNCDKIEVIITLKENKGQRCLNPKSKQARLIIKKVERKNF

| Binder | binding result |
| --- | --- |
| B1 | binds |
| B2 | binds |
| B3 | binds |
| B4 | binds |
| B5 | binds |
| B6 | binds |
| B7 | binds |
| B8 | binds |
| B9 | binds |

molecular target: T2, recombinant human CCL2/MCP1 (human, UniProt P13500 24-99, 125I label in the radioligand assays); assay: ELISA, periplasmic extract on coated CCL2, anti-myc detection
T2 construct: Immunogen and selection antigen was the Mucin stalk Chimera (R&D 979-MC/CF)
T2 sequence (P13500 24-99 limits assumed): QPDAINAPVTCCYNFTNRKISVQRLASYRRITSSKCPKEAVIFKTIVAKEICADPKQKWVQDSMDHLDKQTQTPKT

| Binder | binding result |
| --- | --- |
| B10 | binds |
| B11 | binds |
| B12 | binds |
| B13 | binds |
| B14 | binds |
| B15 | binds |
| B16 | binds |
| B17 | binds |
| B18 | binds |
| B19 | binds |
| B20 | binds |
| B21 | binds |
| B22 | binds |

molecular target: T1, recombinant human CXCL11/I-TAC; assay: inhibition of 125I-CXCL11 binding to hCXCR3 (HEK293T cells), 10x diluted periplasm; ELISA grade at the label

| Binder | binding result |
| --- | --- |
| B23 | binds |
| B24 | binds |
| B25 | binds |
| B26 | binds |
